Data from patent US7657380.

T1: human CD30 (commercial, conjugated to digoxigenin) (human, UniProt P28908 19-379, limits assumed, conjugated to digoxigenin (DIG))
T1 sequence (looked up): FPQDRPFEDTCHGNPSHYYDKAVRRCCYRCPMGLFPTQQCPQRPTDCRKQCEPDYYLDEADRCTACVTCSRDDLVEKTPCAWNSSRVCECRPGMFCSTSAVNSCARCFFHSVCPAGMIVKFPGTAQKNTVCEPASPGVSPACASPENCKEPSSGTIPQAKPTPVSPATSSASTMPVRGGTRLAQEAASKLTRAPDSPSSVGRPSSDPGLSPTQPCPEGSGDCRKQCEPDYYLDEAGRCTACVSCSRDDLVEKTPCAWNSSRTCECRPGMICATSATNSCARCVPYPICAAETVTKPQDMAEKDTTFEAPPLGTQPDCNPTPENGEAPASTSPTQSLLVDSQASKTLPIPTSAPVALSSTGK


target: T1, human CD30 (commercial, conjugated to …); assay: AlphaScreen competition

Binder	Fold IC50 vs H3/L3 [fold]
AC10 H3.24/L3 (antibody, IgG1, name in Kabat numbering, V domains shown) VH: QIQLVQSGPEVKKPGASVKVSCKASGYTFTDYYITWVRQAPGQGLEWMGWINPGSGNTKYNEKFQGRFVFSVDTSASTAYLQISSLKAEDTAVYFCANYGNYWFAYWGQGTLVTVSS VL: DIVLTQSPDSLAVSLGERATINCKASQSVDFDGDSYMNWYQQKPGQPPKVLIYAASNLESGIPARFSGSGSGTDFTLTINSLEAEDAATYYCQQSNEDPWTFGGGTKVEIK	0.03
AC10 H3.27/L3 (antibody, IgG1, name in Kabat numbering, V domains shown) VH: QIQLVQSGPEVKKPGASVKVSCKASGYTFTDYYITWVRQAPGQGLEWMGWIYAGSGNTKYNEKFQGRFVFSVDTSASTAYLQISSLKAEDTAVYFCANYGNYWFAYWGQGTLVTVSS VL: DIVLTQSPDSLAVSLGERATINCKASQSVDFDGDSYMNWYQQKPGQPPKVLIYAASNLESGIPARFSGSGSGTDFTLTINSLEAEDAATYYCQQSNEDPWTFGGGTKVEIK	2
AC10 H3.28/L3 (antibody, IgG1, name in Kabat numbering, V domains shown) VH: QIQLVQSGPEVKKPGASVKVSCKASGYTFTDYYITWVRQAPGQGLEWMGWIYVGSGNTKYNEKFQGRFVFSVDTSASTAYLQISSLKAEDTAVYFCANYGNYWFAYWGQGTLVTVSS VL: DIVLTQSPDSLAVSLGERATINCKASQSVDFDGDSYMNWYQQKPGQPPKVLIYAASNLESGIPARFSGSGSGTDFTLTINSLEAEDAATYYCQQSNEDPWTFGGGTKVEIK	1.34
AC10 H3.29/L3 (antibody, IgG1, name in Kabat numbering, V domains shown) VH: QIQLVQSGPEVKKPGASVKVSCKASGYTFTDYYITWVRQAPGQGLEWMGWIYPGDGNTKYNEKFQGRFVFSVDTSASTAYLQISSLKAEDTAVYFCANYGNYWFAYWGQGTLVTVSS VL: DIVLTQSPDSLAVSLGERATINCKASQSVDFDGDSYMNWYQQKPGQPPKVLIYAASNLESGIPARFSGSGSGTDFTLTINSLEAEDAATYYCQQSNEDPWTFGGGTKVEIK	1.81
AC10 H3.30/L3 (antibody, IgG1, name in Kabat numbering, V domains shown) VH: QIQLVQSGPEVKKPGASVKVSCKASGYTFTDYYITWVRQAPGQGLEWMGWIYPGNGNTKYNEKFQGRFVFSVDTSASTAYLQISSLKAEDTAVYFCANYGNYWFAYWGQGTLVTVSS VL: DIVLTQSPDSLAVSLGERATINCKASQSVDFDGDSYMNWYQQKPGQPPKVLIYAASNLESGIPARFSGSGSGTDFTLTINSLEAEDAATYYCQQSNEDPWTFGGGTKVEIK	1.45
AC10 H3.32/L3 (antibody, IgG1, name in Kabat numbering, V domains shown) VH: QIQLVQSGPEVKKPGASVKVSCKASGYTFTDYYITWVRQAPGQGLEWMGWIYPGSGNTIYNEKFQGRFVFSVDTSASTAYLQISSLKAEDTAVYFCANYGNYWFAYWGQGTLVTVSS VL: DIVLTQSPDSLAVSLGERATINCKASQSVDFDGDSYMNWYQQKPGQPPKVLIYAASNLESGIPARFSGSGSGTDFTLTINSLEAEDAATYYCQQSNEDPWTFGGGTKVEIK	1.09
AC10 H3.33/L3 (antibody, IgG1, name in Kabat numbering, V domains shown) VH: QIQLVQSGPEVKKPGASVKVSCKASGYTFTDYYITWVRQAPGQGLEWMGWIYPGSGNTNYNEKFQGRFVFSVDTSASTAYLQISSLKAEDTAVYFCANYGNYWFAYWGQGTLVTVSS VL: DIVLTQSPDSLAVSLGERATINCKASQSVDFDGDSYMNWYQQKPGQPPKVLIYAASNLESGIPARFSGSGSGTDFTLTINSLEAEDAATYYCQQSNEDPWTFGGGTKVEIK	0.5
AC10 H3.34/L3 (antibody, IgG1, name in Kabat numbering, V domains shown) VH: QIQLVQSGPEVKKPGASVKVSCKASGYTFTDYYITWVRQAPGQGLEWMGWIYPGSGNTKYAEKFQGRFVFSVDTSASTAYLQISSLKAEDTAVYFCANYGNYWFAYWGQGTLVTVSS VL: DIVLTQSPDSLAVSLGERATINCKASQSVDFDGDSYMNWYQQKPGQPPKVLIYAASNLESGIPARFSGSGSGTDFTLTINSLEAEDAATYYCQQSNEDPWTFGGGTKVEIK	1.3
AC10 H3.36/L3 (antibody, IgG1, name in Kabat numbering, V domains shown) VH: QIQLVQSGPEVKKPGASVKVSCKASGYTFTDYYITWVRQAPGQGLEWMGWIYPGSGNTKYSEKFQGRFVFSVDTSASTAYLQISSLKAEDTAVYFCANYGNYWFAYWGQGTLVTVSS VL: DIVLTQSPDSLAVSLGERATINCKASQSVDFDGDSYMNWYQQKPGQPPKVLIYAASNLESGIPARFSGSGSGTDFTLTINSLEAEDAATYYCQQSNEDPWTFGGGTKVEIK	1.24
AC10 H3.37/L3 (antibody, IgG1, name in Kabat numbering, V domains shown) VH: QIQLVQSGPEVKKPGASVKVSCKASGYTFTDYYITWVRQAPGQGLEWMGWIYPGSGNTKYTEKFQGRFVFSVDTSASTAYLQISSLKAEDTAVYFCANYGNYWFAYWGQGTLVTVSS VL: DIVLTQSPDSLAVSLGERATINCKASQSVDFDGDSYMNWYQQKPGQPPKVLIYAASNLESGIPARFSGSGSGTDFTLTINSLEAEDAATYYCQQSNEDPWTFGGGTKVEIK	1.01
AC10 H3.38/L3 (antibody, IgG1, name in Kabat numbering, V domains shown) VH: QIQLVQSGPEVKKPGASVKVSCKASGYTFTDYYITWVRQAPGQGLEWMGWIYPGSGNTKYVEKFQGRFVFSVDTSASTAYLQISSLKAEDTAVYFCANYGNYWFAYWGQGTLVTVSS VL: DIVLTQSPDSLAVSLGERATINCKASQSVDFDGDSYMNWYQQKPGQPPKVLIYAASNLESGIPARFSGSGSGTDFTLTINSLEAEDAATYYCQQSNEDPWTFGGGTKVEIK	1.14
AC10 H3.39/L3 (antibody, IgG1, name in Kabat numbering, V domains shown) VH: QIQLVQSGPEVKKPGASVKVSCKASGYTFTDYYITWVRQAPGQGLEWMGWIYPGSGNTKYDEKFQGRFVFSVDTSASTAYLQISSLKAEDTAVYFCANYGNYWFAYWGQGTLVTVSS VL: DIVLTQSPDSLAVSLGERATINCKASQSVDFDGDSYMNWYQQKPGQPPKVLIYAASNLESGIPARFSGSGSGTDFTLTINSLEAEDAATYYCQQSNEDPWTFGGGTKVEIK	1
AC10 H3.40/L3 (antibody, IgG1, name in Kabat numbering, V domains shown) VH: QIQLVQSGPEVKKPGASVKVSCKASGYTFTDYYITWVRQAPGQGLEWMGWIYPGSGNTKYNQKFQGRFVFSVDTSASTAYLQISSLKAEDTAVYFCANYGNYWFAYWGQGTLVTVSS VL: DIVLTQSPDSLAVSLGERATINCKASQSVDFDGDSYMNWYQQKPGQPPKVLIYAASNLESGIPARFSGSGSGTDFTLTINSLEAEDAATYYCQQSNEDPWTFGGGTKVEIK	1.83
AC10 H3.41/L3 (antibody, IgG1, name in Kabat numbering, V domains shown) VH: QIQLVQSGPEVKKPGASVKVSCKASGYTFTDYYITWVRQAPGQGLEWMGWIYPGSGNTKYNEKFTGRFVFSVDTSASTAYLQISSLKAEDTAVYFCANYGNYWFAYWGQGTLVTVSS VL: DIVLTQSPDSLAVSLGERATINCKASQSVDFDGDSYMNWYQQKPGQPPKVLIYAASNLESGIPARFSGSGSGTDFTLTINSLEAEDAATYYCQQSNEDPWTFGGGTKVEIK	1.38
AC10 H3.42/L3 (antibody, IgG1, name in Kabat numbering, V domains shown) VH: QIQLVQSGPEVKKPGASVKVSCKASGYTFTDYYITWVRQAPGQGLEWMGWIYPGSGNTKYNEKFQGRFVFSLDTSASTAYLQISSLKAEDTAVYFCANYGNYWFAYWGQGTLVTVSS VL: DIVLTQSPDSLAVSLGERATINCKASQSVDFDGDSYMNWYQQKPGQPPKVLIYAASNLESGIPARFSGSGSGTDFTLTINSLEAEDAATYYCQQSNEDPWTFGGGTKVEIK	0.66
AC10 H3.43/L3 (antibody, IgG1, name in Kabat numbering, V domains shown) VH: QIQLVQSGPEVKKPGASVKVSCKASGYTFTDYYITWVRQAPGQGLEWMGWIYPGSGNTKYNEKFQGRFVFSMDTSASTAYLQISSLKAEDTAVYFCANYGNYWFAYWGQGTLVTVSS VL: DIVLTQSPDSLAVSLGERATINCKASQSVDFDGDSYMNWYQQKPGQPPKVLIYAASNLESGIPARFSGSGSGTDFTLTINSLEAEDAATYYCQQSNEDPWTFGGGTKVEIK	0.88
AC10 H3.44/L3 (antibody, IgG1, name in Kabat numbering, V domains shown) VH: QIQLVQSGPEVKKPGASVKVSCKASGYTFTDYYITWVRQAPGQGLEWMGWIYPGSGNTKYNEKFQGRFVFSRDTSASTAYLQISSLKAEDTAVYFCANYGNYWFAYWGQGTLVTVSS VL: DIVLTQSPDSLAVSLGERATINCKASQSVDFDGDSYMNWYQQKPGQPPKVLIYAASNLESGIPARFSGSGSGTDFTLTINSLEAEDAATYYCQQSNEDPWTFGGGTKVEIK	1.76
AC10 H3.45/L3 (antibody, IgG1, name in Kabat numbering, V domains shown) VH: QIQLVQSGPEVKKPGASVKVSCKASGYTFTDYYITWVRQAPGQGLEWMGWIYPGSGNTKYNEKFQGRFVFSVDTSASTAYLQISSLKAEDMAVYFCANYGNYWFAYWGQGTLVTVSS VL: DIVLTQSPDSLAVSLGERATINCKASQSVDFDGDSYMNWYQQKPGQPPKVLIYAASNLESGIPARFSGSGSGTDFTLTINSLEAEDAATYYCQQSNEDPWTFGGGTKVEIK	1.14
AC10 H3.46/L3 (antibody, IgG1, name in Kabat numbering, V domains shown) VH: QIQLVQSGPEVKKPGASVKVSCKASGYTFTDYYITWVRQAPGQGLEWMGWIYPGSGNTKYNEKFQGRFVFSVDTSASTAYLQISSLKAEDTAMYFCANYGNYWFAYWGQGTLVTVSS VL: DIVLTQSPDSLAVSLGERATINCKASQSVDFDGDSYMNWYQQKPGQPPKVLIYAASNLESGIPARFSGSGSGTDFTLTINSLEAEDAATYYCQQSNEDPWTFGGGTKVEIK	1.39
AC10 H3.48/L3 (antibody, IgG1, name in Kabat numbering, V domains shown) VH: QIQLVQSGPEVKKPGASVKVSCKASGYTFTDYYITWVRQAPGQGLEWMGWIYPGSGNTKYNEKFQGRFVFSVDTSASTAYLQISSLKAEDTAVYYCANYGNYWFAYWGQGTLVTVSS VL: DIVLTQSPDSLAVSLGERATINCKASQSVDFDGDSYMNWYQQKPGQPPKVLIYAASNLESGIPARFSGSGSGTDFTLTINSLEAEDAATYYCQQSNEDPWTFGGGTKVEIK	1.6
AC10 H3.49/L3 (antibody, IgG1, name in Kabat numbering, V domains shown) VH: QIQLVQSGPEVKKPGASVKVSCKASGYTFTDYYITWVRQAPGQGLEWMGWIYPGSGNTKYNEKFQGRFVFSVDTSASTAYLQISSLKAEDTAVYFCTNYGNYWFAYWGQGTLVTVSS VL: DIVLTQSPDSLAVSLGERATINCKASQSVDFDGDSYMNWYQQKPGQPPKVLIYAASNLESGIPARFSGSGSGTDFTLTINSLEAEDAATYYCQQSNEDPWTFGGGTKVEIK	0.38
